Tests used:
[1] = biological target: Fluc^A12C-K329C (Fluc^NDS1, N-terminal domain sensor) (firefly); assay: FRET or BRET; single-molecule FRET (TIRF) within AF555/AF647-labelled Fluc immobilised on a neutravidin coverslip; the low-FRET (<0.3) state is read as DnaK bound; DnaJ 0.6 uM, DnaK 20 uM, GrpE 1.2 uM and HtpG 10 uM (KJEG); ATP; imaging buffer, room temperature
[2] = biological target: Fluc^K378C-K496C (Fluc^CDS1, C-terminal domain sensor) (firefly); assay: as above

DnaK (Escherichia coli Hsp70) (from UniProt P0A6Y8 1-638) (natural protein)
percent of the time DnaK bound (<0.3 FRET) after 15 min [1]: 15% | percent of the time DnaK bound (<0.3 FRET) after 15 min [2]: 15%

Source: PMC13418734
